B1: PLEKHM1‐LIR WT peptide (EDEWVNVQY), biotinylated [modified: biotin; biotin] [not stated] / 6xHis‐tagged LC3C [human] (parent complex)
chain 1: EDEWVNVQY
chain 2: MPPPQKIPSVRPFKQRKSLAIRQEEVAGIRAKFPNKIPVVVERYPRETFLPPLDKTKFLVPQELTMTQFLSIIRSRMVLRATEAFYLLVNNKSLVSMSATMAEIYRDYKDEDGFVYMTYASQETFG
B2: PLEKHM1‐LIR WT peptide (EDEWVNVQY), biotinylated [modified: biotin; biotin] [not stated] / 6xHis‐tagged LC3B [human] (parent complex)
chain 1: EDEWVNVQY
chain 2: not shown
B3: PLEKHM1‐LIR WT peptide (EDEWVNVQY), biotinylated [modified: biotin; biotin] [not stated] / 6xHis‐tagged GABARAP‐L1 [human] (parent complex)
chain 1: EDEWVNVQY
chain 2: not shown

Variants of: B1
Assay: peptide array ELISA (biotinylated peptide on streptavidin plate, 6xHis-mATG8, anti-His-HRP, TMB); absorbance at 450 nm; n = 4; read off a plot

Row | Variant | screen value [fold over mutLIR]
1 | chain 1 V5A | ~1.5
2 | chain 1 V7A | ~1.4
3 | chain 1 N6A | ~1.7
4 | chain 1 V5A, chain 1 N6A | ~1.2

Variants of: B1
Assay: peptide array (biotinylated LIR peptide, 6xHis-mATG8, absorbance); n = 3; read off a plot

Row | Variant | percent of parent [% Mutant LIR/WT]
5 | chain 1 V7I | ~110
6 | chain 1 V7L | ~85
7 | chain 1 W4A, chain 1 V7A | ~5
8 | chain 1 W4Y | ~25
9 | chain 1 W4F | ~50

Variants of: B2
Assay: peptide array (biotinylated LIR peptide, 6xHis-mATG8, absorbance); n = 5; read off a plot

Row | Variant | ratio to parent
10 | chain 1 V5C, chain 1 N6F, chain 1 V7L | ~1.9
11 | chain 1 V5C, chain 1 N6I, chain 1 V7L | ~2.4
12 | chain 1 W4A, chain 1 V7A | ~0.17
13 | chain 1 V5C, chain 1 N6V, chain 1 V7L | ~2.3

Variants of: B2
Assay: peptide array (biotinylated LIR peptide, 6xHis-mATG8, absorbance); n = 3; read off a plot

Row | Variant | percent of parent [% Mutant LIR/WT]
14 | chain 1 W4A, chain 1 V7A | ~8
15 | chain 1 W4F | ~8
16 | chain 1 W4Y | ~10
17 | chain 1 V7I | ~200
18 | chain 1 V7L | ~250

Variants of: B3
Assay: peptide array ELISA (biotinylated peptide on streptavidin plate, 6xHis-mATG8, anti-His-HRP, TMB); absorbance at 450 nm; n = 4; read off a plot

Row | Variant | screen value [fold over mutLIR]
19 | chain 1 V7A | ~2
20 | chain 1 V5A, chain 1 N6A | ~1.3
21 | chain 1 N6A | ~9.9
22 | chain 1 V5A | ~1.7

Variants of: B3
Assay: peptide array (biotinylated LIR peptide, 6xHis-mATG8, absorbance); n = 3; read off a plot

Row | Variant | percent of parent [% Mutant LIR/WT]
23 | chain 1 V7L | ~110
24 | chain 1 V7I | ~95
25 | chain 1 W4A, chain 1 V7A | ~7
26 | chain 1 W4F | ~60
27 | chain 1 W4Y | ~55

Source: paper PMC5538626 (2017)
